Measured values as given in patent publication US5459063A, “Plasmodium falciparum ribonucleotide reductase DNA” (priority 1993, dated 1995).
Read-outs that look alike come from different tables or passages of the source. Ends that are not written are not given here.

T1: human RR (Homo sapiens, UniProt P23921)
T1 sequence (P23921 1-792): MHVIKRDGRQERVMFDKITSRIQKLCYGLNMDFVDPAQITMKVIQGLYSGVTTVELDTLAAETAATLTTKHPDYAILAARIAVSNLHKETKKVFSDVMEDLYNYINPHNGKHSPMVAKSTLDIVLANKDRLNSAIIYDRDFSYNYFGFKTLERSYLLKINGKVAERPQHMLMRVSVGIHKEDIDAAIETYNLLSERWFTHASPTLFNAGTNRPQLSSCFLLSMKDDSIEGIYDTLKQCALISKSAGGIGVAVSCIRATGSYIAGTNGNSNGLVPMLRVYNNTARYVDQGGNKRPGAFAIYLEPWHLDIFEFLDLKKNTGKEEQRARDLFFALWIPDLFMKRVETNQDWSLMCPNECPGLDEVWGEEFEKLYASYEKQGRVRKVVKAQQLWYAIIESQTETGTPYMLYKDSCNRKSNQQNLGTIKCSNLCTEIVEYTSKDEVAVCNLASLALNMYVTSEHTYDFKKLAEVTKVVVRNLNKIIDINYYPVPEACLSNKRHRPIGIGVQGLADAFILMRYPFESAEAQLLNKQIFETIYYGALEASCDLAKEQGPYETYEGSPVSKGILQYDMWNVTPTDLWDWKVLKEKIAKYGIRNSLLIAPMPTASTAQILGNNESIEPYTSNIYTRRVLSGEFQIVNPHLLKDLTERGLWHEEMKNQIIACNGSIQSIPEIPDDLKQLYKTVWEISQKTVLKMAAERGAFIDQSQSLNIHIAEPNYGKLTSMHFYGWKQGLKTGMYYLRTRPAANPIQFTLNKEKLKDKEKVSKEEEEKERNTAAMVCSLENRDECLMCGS

T2: calf thymus/mouse ribonucleotide reductase (mammalian RR) (Bos taurus, UniProt Q32LP1)
T2 sequence (Q32LP1 1-791): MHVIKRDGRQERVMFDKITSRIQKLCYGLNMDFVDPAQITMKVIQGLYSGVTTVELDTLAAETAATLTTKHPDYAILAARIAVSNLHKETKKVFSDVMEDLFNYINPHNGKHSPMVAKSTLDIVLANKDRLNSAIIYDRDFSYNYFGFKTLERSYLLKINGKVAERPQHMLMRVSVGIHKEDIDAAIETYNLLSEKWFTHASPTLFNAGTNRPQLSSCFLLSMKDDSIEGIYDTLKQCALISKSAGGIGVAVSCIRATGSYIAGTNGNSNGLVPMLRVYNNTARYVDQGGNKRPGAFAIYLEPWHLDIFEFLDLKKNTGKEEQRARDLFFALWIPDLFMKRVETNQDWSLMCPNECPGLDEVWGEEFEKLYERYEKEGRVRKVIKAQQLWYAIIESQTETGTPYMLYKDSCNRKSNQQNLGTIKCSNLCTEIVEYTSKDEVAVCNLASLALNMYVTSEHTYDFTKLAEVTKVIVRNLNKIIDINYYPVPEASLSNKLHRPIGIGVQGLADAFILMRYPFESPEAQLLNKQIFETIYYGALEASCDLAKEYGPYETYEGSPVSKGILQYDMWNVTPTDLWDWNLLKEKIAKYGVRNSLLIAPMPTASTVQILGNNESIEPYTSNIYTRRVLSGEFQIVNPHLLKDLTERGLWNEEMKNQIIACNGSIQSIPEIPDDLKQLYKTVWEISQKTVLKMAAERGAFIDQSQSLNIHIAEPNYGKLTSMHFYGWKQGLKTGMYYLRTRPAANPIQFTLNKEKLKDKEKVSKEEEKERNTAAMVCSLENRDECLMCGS


Tests used:
human RR = biological target: T1, human RR; details: background, "about"; cited from earlier work
[1] = biological target: T2, calf thymus/mouse ribonucleotide reductase (mammalian RR); test: biochemical
From the text: From two to four assays were run

calf thymus R1 (calf) [2] = biological target: calf thymus R1 (calf)
calf thymus R1 (calf) [3] = biological target: calf thymus R1 (calf); remark: listed apart in the source
[4] = biological target: S. cerevisiae (yeast) RR (S. cerevisiae)
calf thymus R1 (calf) [5] = biological target: calf thymus R1 (calf); remark: listed apart in the source

| Molecule | IC50, inhibition of Yeast RR activity [4] [µM] | IC50, inhibition of mammalian RR activity (calf thymus R1 (calf) [5]) [µM] | other results |
| --- | --- | --- | --- |
| Ac-FTLDADF [Peptide 4, Ac- (FTLDADF), reference compound] | – | – | IC50 (human RR): 10 to 20 µM; IC50 [1]: 8 to 20 µM; IC50 ([1]; IC50, Mammalian RR, Table 5, mammalian RR, Dixon plots): 8 to 20 µM; IC50 ([1]; IC50 on mammalian RR activity, Example 54 text, peptide bound to purified calf thymus R1 before adding recombinant mouse R2): 10 to 20 µM |
| Ac-FTLDADF [Ac-(FTLDADF)] | 25 | – | Percent RI (percent relative inhibitory potency), mammalian RR activity (calf thymus R1 (calf) [2]): 100%; IC50, inhibition of mammalian RR activity (calf thymus R1 (calf) [3]): 10 to 20 µM |
| Ac-AGAFTFNEDF [Ac-(…)] | 25 | – | – |
| Ac-FTFNEDF [Ac-(FTFNEDF)] | 25 | 100 | – |
| Ac-TFNEDF [Ac-(TFNEDF)] | 600 | 600 | – |
